Assay results published in the supplement of paper PMC12042874.
± gives the uncertainty stated by the source.

Experiment: amyloid nucleation score (Sup35N fusion, yeast selection) (log enrichment); library NNK3; higher = more nucleation; inactive = no reads after selection
Outline: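 Three technical output replicates were used for random libraries. Psi-negative yeast expressing peptides of 20 random codons fused to Sup35N were induced with 100 μM copper sulfate for 24 hours and grown 7 days at 30°C on medium lacking adenine and uracil, and input and output plasmid inserts were Illumina-sequenced, excluding sequences with under 100 input reads. The nucleation score is the DiMSum log enrichment of output over input reads, centred on the mode score of non-aggregating sequences.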

Substance	amyloid nucleation score
WRSTRIRTSWHTDTDFLSNG	inactive
WRVAYET	inactive
WRVSFTLS	inactive
WRYVFLVC	inactive
WSETNTFS	inactive
WSFMYVYVC	1.71 ± 0.06
WSFRVKTNRDDTEMLLSRSE	inactive
WSMLPLKNTIAKQ	inactive
WSNSCYEC	inactive
WSPGESNTLVGVCIEDALRS	inactive
WSRSACMGEGNLDVFSVWLL	inactive
WSTPDFRGLHYSTVFITIFA	0.194 ± 0.51
WSVQMNRITDSSLDCMMMH	inactive
WTDNSVFLTVVINDIRTSTS	2.56 ± 0.062
WTKKFRVMTACLLEWYVDEK	inactive
WTMSLLQFDLDTSTSTLTMV	inactive
WTRVFLRTKGRSEFLLRWPL	inactive
WTSHALKISPLNICNQLEHV	-0.09 ± 0.77
WTSHPYWSL	inactive
WTWTSLSSLMWSV	inactive
WTYTKVWIWS	inactive
WVDYLYNSLESIRMCWANVY	inactive
WVFNGARKGM	inactive

Substance	amyloid nucleation score
WVFRFRNQ	inactive
WVPLDHVGGA	inactive
WVSFCVCWNFNLY	3.18 ± 0.064
WVSFKDLSELCLGCFRMPRF	inactive
WVSRNTVRGKVMSRCWVVQY	inactive
WVWSKL	inactive
WWPLSLGNNVGPLHCRSRWE	inactive
WYDGQRFCRELYNCPSAPGL	inactive
WYERGG	inactive
WYGVSACYGWHNVAHSSRTR	inactive
WYRFPCFFLYCDAWMILNFA	inactive
WYRMLFIRSKDSMDKMPIFL	inactive
WYSCAKMANIHIVSVVTTST	inactive
WYSNYCMIDRHGVFEVVSCM	inactive
WYSRLRLEQMRKWCHRVL	inactive
YACETVMSFVYMITFIRYLR	inactive
YACRVGVWKRVRVWNSGVSL	inactive
YAFIL	inactive
YAHLAL	inactive
YALVVR	inactive
YARYMYYATNKINNWVVLKP	inactive
YASVEIFHWTFSGILYSWGH	inactive
YASWKLRTN	inactive

Substance	amyloid nucleation score
YCETLTRY	inactive
YCFSFAISCNDMRLFFLVNV	inactive
YCSCMLTGNMGRSH	-0.032 ± 0.33
YCSYQNR	inactive
YDELY	inactive
YDKWSRSMYVKLCLGAALSW	inactive
YDLGIGNKHVRYLWGPARKK	inactive
YDLRAALKV	inactive
YDNANGRTRIIMISGRVSNY	inactive
YDRVSMGRFIKR	inactive
YDVFLIL	inactive
YDVPTSTDSLFATFVYYGRR	1.44 ± 0.12
YEDQRSLRFCR	inactive
YEMENDVS	inactive
YESHLLRNRDSRTYSR	inactive
YESHLSRRLLIMYIGAFLGR	inactive
YFAVMGGITLHLFAVIRSCL	inactive
YFCGAVEESERLRGMEGNPD	0.84 ± 0.2
YFCVCSCVDFGYASYRGYAA	inactive
YFFIRVIALYLRVELSL	inactive
YFGCSYTNQAFGRSDSSYVD	inactive
YFINSFCVAVWIICHQGVCA	inactive
YFKRCQGNEQFSRNRNANGA	inactive

Substance	amyloid nucleation score
YFRSLGLAIGCNR	inactive
YFSVLSESVSHSDVFRS	inactive
YFVSVGRNKELRGLFTRLVV	inactive
YFVTFVYTKLLCNVRSLL	0.578 ± 0.12
YFYGLQWPCD	inactive
YGDEASPLSFCIDHEDRVKV	inactive
YGFAYV	-0.336 ± 1.1
YGFCSC	-0.033 ± 0.81
YGFMCLVCIGTCDCKRSWQG	2.28 ± 0.086
YGHSRWSKISHRSSACLFGS	inactive
YGLTVCTTGLVFNNWMGSMV	1.83 ± 0.11
YGMSTG	inactive
YGMYNMTGNMAFKTPARYIF	inactive
YGNVIFRFVRADERI	0.314 ± 0.35
YGRRMAHAGGVTGYGNLWCH	inactive
YGYFHTRGYVAFE	inactive
YHCAFVSINSECMVDGLTLC	0.883 ± 0.15
YHGCPERVWLSA	inactive
YHMVCNCDWVGVAFYVSYGR	1.91 ± 0.065
YIALCLRYHTFLMKQEFHVG	inactive
YIDFVPLVYTRKFDGEETCI	inactive
YIFFEWGINPHRGDYVFSFR	inactive
YIGCCWYSSCDRVSYRYSVM	2.78 ± 0.06

Substance	amyloid nucleation score
YIGRAGQFDRRFFGSLCCAM	inactive
YIIFVNKLSSPYFVT	1.06 ± 0.19
YIITFGSMTCLVVTGNPAIV	-0.039 ± 0.66
YILNC	inactive
YILSTLAFFGDRNYDMVLGC	inactive
YINFISWNVCVSCLFWLDSV	2.09 ± 0.054
YISHWASGSFIVNYIERWMR	0.707 ± 0.29
YISLISCMGKVNY	2.31 ± 0.089
YISLVSWHNGWYSKLICGVV	inactive
YITNVQVIGMMVINSNHKGV	3.42 ± 0.058
YIYRKCVD	inactive
YKHVARLEP	inactive
YKKVLLDSFYSDTWSSQGSR	inactive
YKLERTRPDSFMVCERINGH	inactive
YKLICMSSRWTFLSSRQGEF	inactive
YKLRVNSVETNCTEILTLVE	inactive
YKWARYVFTTDNYFWVPAGY	inactive
YKYGPARCRKRGDSCAKGGG	inactive
YKYVFHPIFFDQGT	inactive
YLCFLSKMVSYSISYQWSRQ	inactive
YLDYSFREFCRMNQ	inactive
YLEEARQYNLQRYWKDLKVL	inactive
YLFLVRSQTLRVRYWTRNPP	inactive

Substance	amyloid nucleation score
YLGIFWRFFLRFSRGVTVWL	-0.488 ± 0.96
YLIAIG	inactive
YLIEYTSSNKPMAPLSDDTQ	inactive
YLINPVEVD	inactive
YLISNVFIVLSVDLCDVLGL	2.44 ± 0.072
YLLSMSENMRLALIECVAV	inactive
YLLSVYLLVATSCMYGNMGE	inactive
YLLVLMVERF	inactive
YLMVSVNFFSYVLSESRMCG	0.85 ± 0.12
YLNISGWSYFNCTRSWLLNR	inactive
YLNNWMSWRRSLRRHIEVVR	inactive
YLRHIVFNRQDYMSTRLCKH	inactive
YLRVQDLWWNKFENARHSSI	inactive
YLSASYIVYFIITEYYSYIF	inactive
YLSGSDIGFGYERCKIDSGV	inactive
YLSICVMFLVASRVRSISSI	inactive
YLSINTAEYHFQEQVLVFVY	inactive
YLSSSYVVGDMSCV	inactive
YLSTL	inactive
YLTEWDLGNVWRNPSAATPM	inactive
YLVAKDVSCNWVVTDGRLCH	inactive
YLVMRSKYLYRFYAMVLKDL	inactive
YLVQNFKT	-0.401 ± 0.6

Substance	amyloid nucleation score
YLVSLRLVYSNILEFVKRVC	inactive
YLVSY	inactive
YLVVHW	inactive
YLYRNRS	inactive
YMLLCPRPRGRSLRINNNDE	inactive
YMLLVSGFA	inactive
YMLTEFYLFPDRILRHRRTD	inactive
YMPFYDSCVRHAYRSSFR	0.038 ± 0.43
YMVHDHFKSNFRMCGCGYFN	inactive
YNANFFWYLADGIFDA	inactive
YNAYLKENLILLYLCRSSRE	2.17 ± 0.063
YNCGHLNYGIVNFLFYVWLI	inactive
YNFVPVFHVNMSVFLCILVL	2.43 ± 0.072
YNMNVFAGGCAMCMWISRLF	2.61 ± 0.074
YNRKWDMQY	inactive
YPFLSIGLYQCRS	inactive
YPLFECSDAPSQDNDTMLTR	inactive
YPLLEPSRVLVVCDGKGGVP	inactive
YPLNLYYQAFYSLIGLVIPP	inactive
YPLRSGF	inactive
YPLYVHRCLIMTFMLSLWPR	inactive
YQERL	inactive
YQGYRFNC	inactive
